Experimental data reported in publication PMC11417369, “DNA sequence and chromatin differentiate sequence-specific transcription factor binding in the human malaria parasite Plasmodium falciparum”.

B1: XGTACX_site7745 (dsDNA)
DNA 1: GGGGACGCGGGTGGGGGTACTCACACTATGCAAAAT
DNA 2: ATTTTGCATAGTGTGAGTACCCCCACCCGCGTCCCC
B2: GTGCAC_negctrl_site656 (dsDNA)
DNA 1: ATTATTTATTTATTTTTTTTTTTTTTCTCTTTTCCT
DNA 2: AGGAAAAGAGAAAAAAAAAAAAAATAAATAAATAAT
B3: GTGCAC_negctrl_site475 (dsDNA)
DNA 1: AGAAATAATATTATTCAAGTATTTATTTAATTTTCA
DNA 2: TGAAAATTAAATAAATACTTGAATAATATTATTTCT
B4: XGTACX_site96 (dsDNA)
DNA 1: TGGAACCATAAAAAGTGTACACATATAAAAAATATG
DNA 2: CATATTTTTTATATGTGTACACTTTTTATGGTTCCA
B5: GTGCAC_negctrl_site519 (dsDNA)
DNA 1: AAAATACATATATATATATATAATATTGTTGTTAAA
DNA 2: TTTAACAACAATATTATATATATATATATGTATTTT
B6: GTGCAC_site10021 (dsDNA)
DNA 1: ATAAAATATATATTAGTGCACTAAAGGAAAAAAAAT
DNA 2: ATTTTTTTTCCTTTAGTGCACTAATATATATTTTAT
B7: GTGCAC_negctrl_site367 (dsDNA)
DNA 1: TTTTAAAAAAAAAAAAAATAAGATAAAATTAAATAA
DNA 2: TTATTTAATTTTATCTTATTTTTTTTTTTTTTAAAA
B8: XGTACX_site6231 (dsDNA)
DNA 1: ATGTTTTATAAAAGGCGTACACATATATTTAAGTAA
DNA 2: TTACTTAAATATATGTGTACGCCTTTTATAAAACAT
B9: GTGCAC_negctrl_site301 (dsDNA)
DNA 1: TTTATTTATTTATATTTTTTTATATAATTTATATAT
DNA 2: ATATATAAATTATATAAAAAAATATAAATAAATAAA
B10: GTGCAC_negctrl_site285 (dsDNA)
DNA 1: AAAATATTATTACAGAAACAAAAAGAAAAATATATA
DNA 2: TATATATTTTTCTTTTTGTTTCTGTAATAATATTTT
B11: GTGCAC_negctrl_site122 (dsDNA)
DNA 1: ATCTTAGTTGAAATATAGAATTTATAATAAAAGTTA
DNA 2: TAACTTTTATTATAAATTCTATATTTCAACTAAGAT
B12: GTGCAC_negctrl_site189 (dsDNA)
DNA 1: AACAAATATGATTTTTTATATATTTTTAAATTTGGT
DNA 2: ACCAAATTTAAAAATATATAAAAAATCATATTTGTT
B13: GTGCAC_negctrl_site553 (dsDNA)
DNA 1: GGAAAATCTAATCATTTAATATTTATTTATCTAATT
DNA 2: AATTAGATAAATAAATATTAAATGATTAGATTTTCC
B14: XGTACX_site4991 (dsDNA)
DNA 1: TAAAATAATATATGGTGTACACAAAAGTATAAATAA
DNA 2: TTATTTATACTTTTGTGTACACCATATATTATTTTA
B15: GTGCAC_negctrl_site150 (dsDNA)
DNA 1: TTGTAATAAAGAATTAAAAAAAAATATATACAGGTA
DNA 2: TACCTGTATATATTTTTTTTTAATTCTTTATTACAA
B16: GTGCAC_negctrl_site246 (dsDNA)
DNA 1: TTAATTCTATACATAAATTATGTTTACATAAAGAAT
DNA 2: ATTCTTTATGTAAACATAATTTATGTATAGAATTAA
B17: XGTACX_site4176 (dsDNA)
DNA 1: ATAAATTTAAATAGGAGTACACAGCTTTATATTTTG
DNA 2: CAAAATATAAAGCTGTGTACTCCTATTTAAATTTAT
B18: XGTACX_site6396 (dsDNA)
DNA 1: CCTATAATTAGGGGTAGTACACAAAAAAAAAAAAAA
DNA 2: TTTTTTTTTTTTTTGTGTACTACCCCTAATTATAGG

Legend:
Experiment in all cases: gcPBM; about 25 ug protein; PBS, 1% milk, 0.2 mg/ml BSA, salmon testes DNA, 0.03% Triton X-100
[1] = target: T1, AP2-G D1 (Plasmodium falciparum, UniProt Q8I5I9 2123-2245); settings: tags: N-terminal GST (pGEX-4T-1), kept; label: surface-attached array probe
T1 sequence: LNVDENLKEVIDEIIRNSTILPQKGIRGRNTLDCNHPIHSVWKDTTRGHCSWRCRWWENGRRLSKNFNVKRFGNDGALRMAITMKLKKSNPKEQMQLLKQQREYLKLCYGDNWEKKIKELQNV

[2] = target: T2, SIP2 D1 (Plasmodium falciparum, UniProt C6KSN9 177-235); settings: tags: N-terminal GST (pGEX-4T-1), kept; label: surface-attached array probe
T2 sequence: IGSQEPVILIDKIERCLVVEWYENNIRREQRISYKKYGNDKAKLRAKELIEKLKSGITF

[3] = target: AP2-I D3 (Plasmodium falciparum, UniProt Q8IJW6 910-1027); settings: tags: N-terminal GST (pGEX-4T-1), kept; label: surface-attached array probe
[4] = target: T3, HDP1 homeodomain-like (Plasmodium falciparum, UniProt Q8IKH4 2990-3078); settings: tags: N-terminal GST (pGEX-4T-1), kept; chain copies: 2; label: surface-attached array probe
T3 sequence: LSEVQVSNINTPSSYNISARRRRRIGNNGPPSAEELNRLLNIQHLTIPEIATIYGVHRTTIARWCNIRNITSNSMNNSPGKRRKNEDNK

| Binder | binding signal [1] | binding signal [2] | binding signal [3] | binding signal [4] |
| --- | --- | --- | --- | --- |
| B1 | 13 ln median PBM intensity, better of two orientations | – | – | – |
| B2 | – | 6.87 ln median PBM intensity, better of two orientations | 6.88 ln median PBM intensity, better of two orientations | 6.27 ln median PBM intensity, better of two orientations |
| B3 | – | 6.53 ln median PBM intensity, better of two orientations | 6.75 ln median PBM intensity, better of two orientations | 5.92 ln median PBM intensity, better of two orientations |
| B4 | 12.8 ln median PBM intensity, better of two orientations | – | – | – |
| B5 | – | – | 7.2 ln median PBM intensity, better of two orientations | 6.31 ln median PBM intensity, better of two orientations |
| B6 | – | 10.4 ln median PBM intensity, better of two orientations | 12.4 ln median PBM intensity, better of two orientations | 11.6 ln median PBM intensity, better of two orientations |
| B7 | – | 6.6 ln median PBM intensity, better of two orientations | 6.89 ln median PBM intensity, better of two orientations | 6.01 ln median PBM intensity, better of two orientations |
| B8 | 13.5 ln median PBM intensity, better of two orientations | – | – | – |
| B9 | – | – | 7.13 ln median PBM intensity, better of two orientations | 6.28 ln median PBM intensity, better of two orientations |
| B10 | – | 6.76 ln median PBM intensity, better of two orientations | 7.1 ln median PBM intensity, better of two orientations | 6.37 ln median PBM intensity, better of two orientations |
| B11 | – | – | 7.07 ln median PBM intensity, better of two orientations | 6.01 ln median PBM intensity, better of two orientations |
| B12 | – | 6.75 ln median PBM intensity, better of two orientations | 7.09 ln median PBM intensity, better of two orientations | 5.9 ln median PBM intensity, better of two orientations |
| B13 | – | 6.68 ln median PBM intensity, better of two orientations | 6.76 ln median PBM intensity, better of two orientations | 5.78 ln median PBM intensity, better of two orientations |
| B14 | 13.2 ln median PBM intensity, better of two orientations | – | – | – |
| B15 | – | 6.9 ln median PBM intensity, better of two orientations | 7.17 ln median PBM intensity, better of two orientations | 6.31 ln median PBM intensity, better of two orientations |
| B16 | – | 6.9 ln median PBM intensity, better of two orientations | 7.16 ln median PBM intensity, better of two orientations | 6.34 ln median PBM intensity, better of two orientations |
| B17 | 13 ln median PBM intensity, better of two orientations | – | – | – |
| B18 | 12.8 ln median PBM intensity, better of two orientations | – | – | – |
